According to US20240116985A1, “STAPLED PEPTIDES AND METHODS THEREOF” (priority 2020, published 2024):
Starred links: 1 amine or outer side, 2 acyl side, 3 side chain; linkers in the order of their positions; H or OH if unused. Positions of bridges follow the written chain, without caps; N, C: chain ends. Non-standard residues stand in square brackets, D forms with d. Primed or numbered codes have the meaning given here. PyrS2″ = (S)-3-amino-1-((pent-4-en-1-yloxy)carbonyl)pyrrolidine-3-carboxylic acid (stapling residue), C=CCCCOC(=O)N1CC[C@@](N[*:1])(C(=O)[*:2])C1; B5(18) = 2,2-bis(4-pentenyl)glycine (2-amino-2-(pent-4-en-1-yl)hept-6-enoic acid), stitching residue, C=CCCCC(CCCC=C)(N[*:1])C(=O)[*:2]; B5(4) = 2,2-bis(4-pentenyl)glycine = 2-amino-2-(pent-4-en-1-yl)hept-6-enoic acid (stitching residue), C=CCCCC(CCCC=C)(N[*:1])C(=O)[*:2]; B5(8) = 2,2-bis(4-pentenyl)glycine (2-amino-2-(pent-4-en-1-yl)hept-6-enoic acid, stitching residue), C=CCCCC(CCCC=C)(N[*:1])C(=O)[*:2]; TfeGA = (S)-2-amino-3-((carboxymethyl)(2,2,2-trifluoroethyl)amino)propanoic acid, O=C([C@H](CN(CC(=O)[*:3])CC(F)(F)F)N[*:1])[*:2]; PyrS2 = (S)-3-amino-1-((pent-4-en-1-yloxy)carbonyl)pyrrolidine-3-carboxylic acid, C=CCCCOC(=O)N1CC[C@@](N[*:1])(C(=O)[*:2])C1; PyrS3 = (S)-3-amino-1-((hex-5-en-1-yloxy)carbonyl)pyrrolidine-3-carboxylic acid, C=CCCCCOC(=O)N1CC[C@@](N[*:1])(C(=O)[*:2])C1; SeN = (S)-5-(((allyloxy)carbonyl)(methyl)amino)-2-amino-2-methylpentanoic acid, C=CCOC(=O)N(C)CCC[C@](C)(N[*:1])C(=O)[*:2]; B5(13) = 2-amino-2-(pent-4-en-1-yl)hept-6-enoic acid (two alkene chains), C=CCCCC(CCCC=C)(N[*:1])C(=O)[*:2]; Phe(2-Cl) = N[C@@H](Cc1ccccc1Cl)C(=O)O; Bta = N[C@@H](Cc1csc2ccccc12)C(=O)O; αAllylPro = C=CC[C@@]1(C(=O)O)CCCN1; tBuAla = CC(C)(C)C[C@H](N)C(=O)O; 2Thi = N[C@@H](Cc1cccs1)C(=O)O; 3Thi = N[C@@H](Cc1ccsc1)C(=O)O; S8 = C=CCCCCCC[C@](C)(N)C(=O)O

B1: I-1004 (peptide)
peptide: Ac-[αAllylPro]D[tBuAla][B5(18)]D[TfeGA]ASFN[PyrS2″][Phe(2-Cl)][Bta]Q-NH2
modifications: staple 1-4, 4-11
B2: I-1002 (peptide)
peptide: Ac-[αAllylPro]D[tBuAla][B5(18)]D[TfeGA]ALFN[PyrS2″][Phe(2-Cl)][Bta]Q-NH2
modifications: staple 1-4, 4-11
B3: I-1008 (peptide)
peptide: Ac-[αAllylPro]D[tBuAla][B5(18)]D[TfeGA]FAFN[PyrS2″][Phe(2-Cl)][Bta]Q-NH2
modifications: staple 1-4, 4-11
B4: I-1019 (peptide)
peptide: Ac-[αAllylPro]D[tBuAla][B5(18)]DDAAFS[PyrS2″][Phe(2-Cl)][Bta]S-NH2
modifications: staple 1-4, 4-11
B5: I-1007 (peptide)
peptide: Ac-[αAllylPro]D[tBuAla][B5(18)]D[TfeGA]LAFN[PyrS2″][Phe(2-Cl)][Bta]Q-NH2
modifications: staple 1-4, 4-11
B6: I-776 (peptide)
peptide: Ac-[αAllylPro]D[tBuAla][B5(13)]DDAAFN[PyrS3][3Thi][Bta]H-NH2
modifications: staple 1-4, 4-11
B7: I-779 (peptide)
peptide: Ac-[αAllylPro]D[tBuAla][B5(13)]DDAAFN[PyrS2][2Thi][Bta]H-NH2
modifications: staple 1-4, 4-11
B8: I-774 (peptide)
peptide: Ac-[αAllylPro]D[tBuAla][B5(13)]DDAAFN[SeN][3Thi][Bta]H-NH2
modifications: staple 1-4, 4-11
B9: I-773 (peptide)
peptide: Ac-[αAllylPro]D[tBuAla][B5(13)]DDAAFN[SeN][3Thi][Bta]H-NH2
modifications: staple 1-4, 4-11
B10: I-700 (peptide)
peptide: Ac-[αAllylPro]DI[B5(8)]D[TfeGA]AAFN[S8][3Thi][Bta]Q-NH2
modifications: staple 1-4, 4-11
B11: I-695 (peptide)
peptide: Ac-[αAllylPro]D[tBuAla][B5(8)]DDAAFN[PyrS2″][3Thi][Bta]H-NH2
modifications: staple 1-4, 4-11
B12: I-702 (peptide)
peptide: Ac-[αAllylPro]DI[B5(8)]D[TfeGA]AAFN[S8][3Thi][Bta]H-NH2
modifications: staple 1-4, 4-11
B13: I-698 (peptide)
peptide: Ac-[αAllylPro]D[tBuAla][B5(8)]DEAAFN[PyrS2″][3Thi][Bta]H-NH2
modifications: staple 1-4, 4-11
B14: I-682 (peptide)
peptide: Ac-[αAllylPro]D[tBuAla][B5(4)]DEAAFN[S8][3Thi][Bta]Q-NH2
modifications: staple 1-4, 4-11; not fully specified

Target: Bcat-Halo (UniProt P35222)
Sequence (P35222 whole entry): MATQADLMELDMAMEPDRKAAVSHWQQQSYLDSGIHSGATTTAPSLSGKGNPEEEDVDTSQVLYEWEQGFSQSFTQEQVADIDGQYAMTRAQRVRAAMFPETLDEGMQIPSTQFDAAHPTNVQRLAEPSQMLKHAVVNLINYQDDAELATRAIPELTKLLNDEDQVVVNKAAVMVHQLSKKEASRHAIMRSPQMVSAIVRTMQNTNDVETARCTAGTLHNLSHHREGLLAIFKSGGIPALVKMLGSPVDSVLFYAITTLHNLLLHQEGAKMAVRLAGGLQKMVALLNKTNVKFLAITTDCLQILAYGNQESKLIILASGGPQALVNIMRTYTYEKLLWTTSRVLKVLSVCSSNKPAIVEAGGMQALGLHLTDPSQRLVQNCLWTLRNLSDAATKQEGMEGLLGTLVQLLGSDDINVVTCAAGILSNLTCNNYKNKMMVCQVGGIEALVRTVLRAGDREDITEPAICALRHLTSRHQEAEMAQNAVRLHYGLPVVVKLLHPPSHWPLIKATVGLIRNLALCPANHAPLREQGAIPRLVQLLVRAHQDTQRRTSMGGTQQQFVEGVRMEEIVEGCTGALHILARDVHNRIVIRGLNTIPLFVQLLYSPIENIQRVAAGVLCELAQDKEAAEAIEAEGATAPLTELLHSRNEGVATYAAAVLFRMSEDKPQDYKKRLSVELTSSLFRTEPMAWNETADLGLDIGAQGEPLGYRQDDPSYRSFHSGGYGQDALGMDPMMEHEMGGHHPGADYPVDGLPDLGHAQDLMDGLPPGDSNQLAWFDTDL
Assay: NanoBRET Abs IC50, Bcat-Halo/TCF4-Luc in HEK293 cells

Row | IC50 | Binder
1 | 10600 nM | B1
2 | 29800 nM | B2
3 | 14000 nM | B3
4 | 9600 nM | B4
5 | 24900 nM | B5

Target: full-length beta-Catenin (Uniprot ID P35222) (Homo sapiens (Human)) (UniProt P35222)
Assay: fluorescence polarization competition; displaces 5FAM-TCF4(10-53) from full-length beta-catenin
Target sequence in this assay (P35222 2-781 limits assumed): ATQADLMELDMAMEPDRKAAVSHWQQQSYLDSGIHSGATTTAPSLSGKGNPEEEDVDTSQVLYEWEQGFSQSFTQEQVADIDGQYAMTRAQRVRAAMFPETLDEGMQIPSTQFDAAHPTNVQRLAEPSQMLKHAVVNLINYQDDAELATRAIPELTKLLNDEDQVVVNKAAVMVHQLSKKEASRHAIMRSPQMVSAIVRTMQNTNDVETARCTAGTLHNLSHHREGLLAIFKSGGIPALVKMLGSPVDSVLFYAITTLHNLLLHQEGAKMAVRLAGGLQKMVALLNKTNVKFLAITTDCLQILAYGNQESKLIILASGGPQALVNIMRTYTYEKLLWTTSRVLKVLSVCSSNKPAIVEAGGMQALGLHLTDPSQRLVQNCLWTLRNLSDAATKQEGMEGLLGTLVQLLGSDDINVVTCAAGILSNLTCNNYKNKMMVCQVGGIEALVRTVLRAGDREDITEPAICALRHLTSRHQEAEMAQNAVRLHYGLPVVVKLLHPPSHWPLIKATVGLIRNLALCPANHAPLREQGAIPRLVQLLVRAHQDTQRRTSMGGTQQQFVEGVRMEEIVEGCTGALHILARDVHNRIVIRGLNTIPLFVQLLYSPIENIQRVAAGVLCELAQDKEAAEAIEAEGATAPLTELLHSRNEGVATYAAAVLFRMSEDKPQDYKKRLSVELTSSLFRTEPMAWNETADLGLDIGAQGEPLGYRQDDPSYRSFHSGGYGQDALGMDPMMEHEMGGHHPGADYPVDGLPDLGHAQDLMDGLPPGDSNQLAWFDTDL

Row | EC50 | Binder
6 | 5 nM | B1
7 | 9 nM | B2
8 | 9 nM | B3
9 | 5 nM | B4
10 | 6 nM | B5

Target: full-length beta-Catenin (Uniprot ID P35222) (Homo sapiens (Human)) (UniProt P35222)
Assay: fluorescence polarization competition; full-length beta-catenin, competitor 5FAM-TCF4(10-53) probe
Target sequence in this assay (P35222 2-781 limits assumed): as above

Row | EC50 | Binder
11 | 5 nM | B6
12 | 5 nM | B7
13 | 38 nM | B8
14 | 167 nM | B9

Target: full-length beta-Catenin (Uniprot ID P35222) (Homo sapiens (Human)) (UniProt P35222)
Assay: fluorescence polarization competition; 10 nM full-length beta-catenin + 10 nM 5FAM-TCF4(10-53) probe
Target sequence in this assay (P35222 whole entry, one chain of several): as the sequence (P35222 whole entry) above

Row | IC50 | Binder
15 | 5 nM | B1
16 | 9 nM | B2
17 | 9 nM | B3
18 | 6 nM | B5

Target: full-length beta-Catenin (Uniprot ID P35222) (Homo sapiens (Human)) (UniProt P35222)
Assay: fluorescence polarization competition; full-length beta-catenin; competitor displaced: 5FAM-TCF4 10-53
Target sequence in this assay (P35222 2-781 limits assumed): as the sequence (P35222 2-781 limits assumed) above

Row | IC50 | Binder
19 | 49 nM | B10
20 | 5 nM | B11
21 | 76 nM | B12
22 | 5 nM | B13
23 | 41 nM | B14

Target: full-length beta-Catenin (Uniprot ID P35222) (Homo sapiens (Human)) (UniProt P35222)
Assay: fluorescence polarization competition; peptide displaces 5FAM-TCF4(10-53) from full-length beta-catenin
Target sequence in this assay (P35222 2-781 limits assumed): as above

Row | IC50 | Binder
24 | 5 nM | B6
25 | 5 nM | B7
26 | 38 nM | B8
27 | 167 nM | B9

Target: full-length beta-Catenin (Uniprot ID P35222) (Homo sapiens (Human)) (UniProt P35222)
Assay: fluorescence polarization competition; full-length beta-catenin + 5FAM-TCF4(10-53) probe; peptide titrated
Target sequence in this assay (P35222 2-781 limits assumed): as above

Row | EC50 | Binder
28 | 49 nM | B10
29 | 5 nM | B11
30 | 76 nM | B12
31 | 5 nM | B13
